B1: Lysine-specific demethylase 2B, residues 656 to 722; numbered along this chain, Q8NHM5 (parent)
chain: LPHTAVCLVCGEAGKEDTVEEEEGKFNLMLMECSICNEIIHPGCLKIKESEGVVNDELPNCWECPKC

The results in this text go back to the Human Domainome abundance scans (Beltran et al. 2025).

± gives the uncertainty stated by the source.

Variants of B1 are the subject of this data set. Put plainly: abundance fitness (aPCA) (normalised: wild type 0, dead -1); higher = more abundant; growth selection in yeast, the domain comes from the species named. Particulars: Homo sapiens.
In the case of LPHTAVCLVCGEAGKEDTVEEEEGKFNLMLMECSICNEIIHPGCEKIKESEGVVNDELPNCWECPKC, the abundance fitness was -0.547 ± 0.2.

With LPHTAVCLVCGEAGKEDTVEEEEGKFNLMLMECSICNEIIHPGCAKIKESEGVVNDELPNCWECPKC, the abundance fitness is -0.224 ± 0.2.

Regarding LPHTAVCLVCGEAGKEDTVEEEEGKFNLMLMECSICNEIIHPGCGKIKESEGVVNDELPNCWECPKC, the abundance fitness is -0.114 ± 0.081.

For LPHTAVCLVCGEAGKEDTVEEEEGKFNLMLMECSICNEIIHPGCHKIKESEGVVNDELPNCWECPKC, the abundance fitness is -0.188 ± 0.18.

LPHTAVCLVCGEAGKEDTVEEEEGKFNLMLMECSICNEIIHPGCDKIKESEGVVNDELPNCWECPKC: the abundance fitness was -0.483 ± 0.17.

For LPHTAVCLVCGEAGKEDTVEEEEGKFNLMLMECSICNEIIHPGCFKIKESEGVVNDELPNCWECPKC, the abundance fitness was -0.286 ± 0.18.

For the variant LPHTAVCLVCGEAGKEDTVEEEEGKFNLMLMECSICNEIISPGCLKIKESEGVVNDELPNCWECPKC, the abundance fitness is -1.03 ± 0.27.

Consider LPHTAVCLVCGEAGKEDTVEEEEGKFNLMLMECSICNEIICPGCLKIKESEGVVNDELPNCWECPKC, for which the abundance fitness was -0.767 ± 0.25.

For LPHTAVCLVCGEAGKEDTVEEEEGKFNLMLMECSICNEIIVPGCLKIKESEGVVNDELPNCWECPKC, the abundance fitness was -1.21 ± 0.44.

Take LPHTAVCLVCGEAGKEDTVEEEEGKFNLMLMECSICNEIILPGCLKIKESEGVVNDELPNCWECPKC: the abundance fitness is -0.925 ± 0.14.

On to LPHTAVCLVCGEAGKEDTVEEEEGKFNLMLMECSICNEIIQPGCLKIKESEGVVNDELPNCWECPKC, for which the abundance fitness is -0.952 ± 0.21.

For LPHTAVCLVCGEAGKEDTVEEEEGKFNLMLMECSICNEIIYPGCLKIKESEGVVNDELPNCWECPKC, the abundance fitness is -0.912 ± 0.33.

With LPHTAVCLVCGEAGKEDTVEEEEGKFNLMLMECSICNEIIWPGCLKIKESEGVVNDELPNCWECPKC, the abundance fitness is -0.913 ± 0.14.

With LPHTAVCLVCGEAGKEDTVEEEEGKFNLMLMECSICNEIIAPGCLKIKESEGVVNDELPNCWECPKC, the abundance fitness was -0.931 ± 0.22.

Regarding LPHTAVCLVCGEAGKEDTVEEEEGKFNLMLMECSICNEIIKPGCLKIKESEGVVNDELPNCWECPKC, the abundance fitness was -0.278 ± 0.16.

LPHTAVCLVCGEAGKEDTVEEEEGKFNLMLMECSICNEIIGPGCLKIKESEGVVNDELPNCWECPKC: the abundance fitness was -0.903 ± 0.12.

In the case of LPHTAVCLVCGEAGKEDTVEEEEGKFNLMLMECSICNEIITPGCLKIKESEGVVNDELPNCWECPKC, the abundance fitness was -0.784 ± 0.16.

In the case of LPHTAVCLVCGEAGKEDTVEEEEGKFNLMLMECSICNEIIRPGCLKIKESEGVVNDELPNCWECPKC, the abundance fitness is -0.943 ± 0.12.

Take LPHTAVCLVCGEAGKEDTVEEEEGKFNLMLMECSICNEIIEPGCLKIKESEGVVNDELPNCWECPKC: the abundance fitness is -0.997 ± 0.18.

Regarding LPHTAVCLVCGEAGKEDTVEEEEGKFNLMLMECSICNEIYHPGCLKIKESEGVVNDELPNCWECPKC, the abundance fitness is -0.257 ± 0.25.

As to LPHTAVCLVCGEAGKEDTVEEEEGKFNLMLMECSICNEIEHPGCLKIKESEGVVNDELPNCWECPKC, the abundance fitness is -0.599 ± 0.086.

In the case of LPHTAVCLVCGEAGKEDTVEEEEGKFNLMLMECSICNEIRHPGCLKIKESEGVVNDELPNCWECPKC, the abundance fitness is -0.2 ± 0.07.

As to LPHTAVCLVCGEAGKEDTVEEEEGKFNLMLMECSICNEIGHPGCLKIKESEGVVNDELPNCWECPKC, the abundance fitness is -0.229 ± 0.067.

As to LPHTAVCLVCGEAGKEDTVEEEEGKFNLMLMECSICNEISHPGCLKIKESEGVVNDELPNCWECPKC, the abundance fitness worked out at 0.096 ± 0.074.

For LPHTAVCLVCGEAGKEDTVEEEEGKFNLMLMECSICNEIQHPGCLKIKESEGVVNDELPNCWECPKC, the abundance fitness was -0.192 ± 0.056.

On to LPHTAVCLVCGEAGKEDTVEEEEGKFNLMLMECSICNEIVHPGCLKIKESEGVVNDELPNCWECPKC, for which the abundance fitness is 0.215 ± 0.074.

Turning to LPHTAVCLVCGEAGKEDTVEEEEGKFNLMLMECSICNEIHHPGCLKIKESEGVVNDELPNCWECPKC, the abundance fitness came to 0.1 ± 0.2.

In the case of LPHTAVCLVCGEAGKEDTVEEEEGKFNLMLMECSICNEIWHPGCLKIKESEGVVNDELPNCWECPKC, the abundance fitness is -0.473 ± 0.11.

With LPHTAVCLVCGEAGKEDTVEEEEGKFNLMLMECSICNEILHPGCLKIKESEGVVNDELPNCWECPKC, the abundance fitness is -0.154 ± 0.072.

Regarding LPHTAVCLVCGEAGKEDTVEEEEGKFNLMLMECSICNEIKHPGCLKIKESEGVVNDELPNCWECPKC, the abundance fitness is -0.368 ± 0.12.

With LPHTAVCLVCGEAGKEDTVEEEEGKFNLMLMECSICNEIPHPGCLKIKESEGVVNDELPNCWECPKC, the abundance fitness was -0.72 ± 0.12.

Turning to LPHTAVCLVCGEAGKEDTVEEEEGKFNLMLMECSICNEINHPGCLKIKESEGVVNDELPNCWECPKC, the abundance fitness is 0.171 ± 0.15.

As to LPHTAVCLVCGEAGKEDTVEEEEGKFNLMLMECSICNEITHPGCLKIKESEGVVNDELPNCWECPKC, the abundance fitness worked out at 0.126 ± 0.079.

LPHTAVCLVCGEAGKEDTVEEEEGKFNLMLMECSICNEIFHPGCLKIKESEGVVNDELPNCWECPKC: the abundance fitness was -0.579 ± 0.31.

In the case of LPHTAVCLVCGEAGKEDTVEEEEGKFNLMLMECSICNEIIHPMCLKIKESEGVVNDELPNCWECPKC, the abundance fitness is 0.113 ± 0.099.

On to LPHTAVCLVCGEAGKEDTVEEEEGKFNLMLMECSICNEIIHPNCLKIKESEGVVNDELPNCWECPKC, for which the abundance fitness was -0.195 ± 0.22.

As to LPHTAVCLVCGEAGKEDTVEEEEGKFNLMLMECSICNEIIHPKCLKIKESEGVVNDELPNCWECPKC, the abundance fitness is -0.219 ± 0.13.

In the case of LPHTAVCLVCGEAGKEDTVEEEEGKFNLMLMECSICNEIIHPACLKIKESEGVVNDELPNCWECPKC, the abundance fitness was 0.085 ± 0.1.

As for LPHTAVCLVCGEAGKEDTVEEEEGKFNLMLMECSICNEIIHPWCLKIKESEGVVNDELPNCWECPKC, the abundance fitness was -0.52 ± 0.12.

LPHTAVCLVCGEAGKEDTVEEEEGKFNLMLMECSICNEIIHPQCLKIKESEGVVNDELPNCWECPKC: the abundance fitness is -0.383 ± 0.13.
